Results as given in US11278600B2, “Human alpha-galactosidase variants” (Codexis, Inc., priority 2014, dated 2022).

Key:
Format in all cases: biochemical
[1] = HTP-analysis of yeast culture supernatants, no challenge (MUGal hydrolysis); conditions: activity of the variant/activity of WT GLA (SEQ ID NO: 5), yeast supernatant
Procedure, shortened: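 GLA variants were expressed in INVSc1 yeast grown in SD-Ura broth with glucose at 30° C., and culture supernatants were collected after 66-84 h. Supernatant was mixed with McIlvaine buffer pH 4.8 and MUGal (2 mM stock) in 50 mM citrate, 200 mM KCl, pH 4.6, incubated at 37° C. for 30-180 minutes, then quenched with sodium carbonate.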

[2] = HTP-analysis of supernatants pretreated with acid (MUGal hydrolysis); conditions: challenge at pH 4.2; activity of the variant/activity of WT GLA (SEQ ID NO: 5); yeast supernatant
Procedure, shortened: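 MUGal hydrolysis was tracked by fluorescence (Ex 355 nm, Em 448 nm) after a 30-180 min reaction at 37° C. in pH 4.8 McIlvaine/citrate buffer, stopped with 1 M sodium carbonate. Beforehand, yeast (INVSc1) culture supernatants carrying GLA variants were held 1-3 h at 37° C. in acidic McIlvaine buffer, pH 3.3-4.3.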

[3] = HTP-analysis of supernatants pretreated with base (MUGal hydrolysis); conditions: challenge at pH 7.1; activity of the variant/activity of WT GLA (SEQ ID NO: 5); yeast supernatant
Procedure, shortened: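 GLA variants secreted from yeast INVSc1; culture supernatants pre-incubated with McIlvaine buffer pH 7.0–8.2 or 200 mM bicarbonate pH 9.1–9.7 at 37° C. for 1–18 h. Residual activity: MUGal (4 mM stock) hydrolysis at pH 4.3–4.8, 37° C., 30–180 min, carbonate quench; fluorescence Ex 355/Em 448 nm.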

Row | Molecule | Relative Activity of GLA Variants After No Challenge (NC) [1] | Relative Activity of GLA Variants After Challenge at pH 4.2 [2] | Relative Activity of GLA Variants After Challenge at pH 7.1 [3]
1 | 172 (protein, Synthetic Polypeptide sequence of Variant No. 172 of mature Human GLA) LDNGLARTPTMGWLHWERFMCNLDCQEEPDSCISEKLFMEMAELMVSEGWKDAGYEYLCIDDCWMAPQRDSEGRLQADPQRFPHGIRQLANYVHSKGLKLGIYADVGNKTCAGFPGSFGYYDIDAQTFADWGVDLLKFDGCYCDSLENLADGYKHMSLALNRTGRSIVYSCEWPLYMWPFQKPNYTEIRQYCNHWRNFADIDDSWKSIKSILDWTSFNQERIVDVAGPGGWNDPDMLVIGNFGLSWNQQVTQMALWAIMAAPLFMSNDLRHISPQAKALLQDKDVIAINQDPLGKQGYQLRQGDNFEVWERPLSGLAWAVAMINRQEIGGPRSYTIAVASLGKGVACNPACFITQLLPVKRKLGFYEWTSRLRSHINPTGTVLLQLENTMQMHKDLLL | + (+ = 0.5 to 1.5 relative activity over WT GLA (SEQ ID NO: 5)) | + (+ = 0.5 to 1.5 relative activity over WT GLA (SEQ ID NO: 5)) | + (+ = 0.5 to 1.5 relative activity over WT GLA (SEQ ID NO: 5))
2 | 177 (protein, Synthetic Polypeptide sequence of Variant No. 177 of mature Human GLA) LDNGLARTPTMGWLHWERFMCNLDCQEEPDSCISEKLFMEMAELMVSEGWKDAGYEYLCIDDCWMAPQRDSEGRLQADPQRFPHGIRQLANYVHDKGLKLGIYADVGNKTCAGFPGSFGYYDIDAQTFADWGVDLLKFDGCYCDSLENLADGYKHMSLALNRTGRSIVYSCEWPLYMWPFQKPNYTEIRQYCNHWRNFADIDDSWKSIKSILDWTSFNQERIVDVAGPGGWNDPDMLVIGNFGLSWNQQVTQMALWAIMAAPLFMSNDLRHISPQAKALLQDKDVIAINQDPLGKQGYQLRQGDNFEVWERPLSGLAWAVAMINRQEIGGPRSYTIAVASLGKGVACNPACFITQLLPVKRKLGFYEWTSRLRSHINPTGTVLLQLENTMQMSKDLLL | + (+ = 0.5 to 1.5 relative activity over WT GLA (SEQ ID NO: 5)) | ++ (++ = >1.5 to 2.5 relative activity over WT GLA (SEQ ID NO: 5)) | + (+ = 0.5 to 1.5 relative activity over WT GLA (SEQ ID NO: 5))
3 | 173 (protein, Synthetic Polypeptide sequence of Variant No. 173 of mature Human GLA) LDNGLARTPTMGWLHWERFMCNLDCQEEPDSCISEKLFMEMAELMVSEGWKDAGYEYLCIDDCWMAPQRDSEGRLQADPQRFPHGIRQLANYVHSKGLKLGIYADVGNKTCAGFPGSFGYYDIDAQTFADWGVDLLKFDGCYCDSLENLADGYKHMSLALNRTGRSIVYSCEWPLYMWPFQKPNYTEIRQYCNHWRNFADIDDSWKSIKSILDWTSFNQERIVDVAGPGGWNDPDMLVIGNFGLSWNQQVTQMALWAIMAAPLFMSNDLRHISPQAKALLQDKDVIAINQDPLGKQGYQLRQGDNFEVWERPLSGLAWAVAMINRQEIGGPRSYTIAVASLGKGVACNPACFITQLLPVKRKLGFYEWTSRLRSHINPTGTVLLQLENTMQMPKDLLL | ++ (++ = >1.5 to 2.5 relative activity over WT GLA (SEQ ID NO: 5)) | ++ (++ = >1.5 to 2.5 relative activity over WT GLA (SEQ ID NO: 5)) | ++ (++ = >1.5 to 2.5 relative activity over WT GLA (SEQ ID NO: 5))
4 | 178 (protein, Synthetic Polypeptide sequence of Variant No. 178 of mature Human GLA) LDNGLARTPTMGWLHWERFMCNLDCQEEPDSCISEKLFMEMAELMVSEGWKDAGYEYLCIDDCWMAPQRDSEGRLQADPQRFPHGIRQLANYVHEKGLKLGIYADVGNKTCAGFPGSFGYYDIDAQTFADWGVDLLKFDGCYCDSLENLADGYKHMSLALNRTGRSIVYSCEWPLYMWPFQKPNYTEIRQYCNHWRNFADIDDSWKSIKSILDWTSFNQERIVDVAGPGGWNDPDMLVIGNFGLSWNQQVTQMALWAIMAAPLFMSNDLRHISPQAKALLQDKDVIAINQDPLGKQGYQLRQGDNFEVWERPLSGLAWAVAMINRQEIGGPRSYTIAVASLGKGVACNPACFITQLLPVKRKLGFYEWTSRLRSHINPTGTVLLQLENTMQMSKDLLL | ++ (++ = >1.5 to 2.5 relative activity over WT GLA (SEQ ID NO: 5)) | +++ (+++ = >2.5 relative activity over WT GLA (SEQ ID NO: 5)) | ++ (++ = >1.5 to 2.5 relative activity over WT GLA (SEQ ID NO: 5))
5 | 179 (protein, Synthetic Polypeptide sequence of Variant No. 179 of mature Human GLA) LDNGLARTPTMGWLHWERFMCNLDCQEEPDSCISEKLFMEMAELMVSEGWKDAGYEYLCIDDCWMAPQRDSEGRLQADPQRFPHGIRQLANYVHQKGLKLGIYADVGNKTCAGFPGSFGYYDIDAQTFADWGVDLLKFDGCYCDSLENLADGYKHMSLALNRTGRSIVYSCEWPLYMWPFQKPNYTEIRQYCNHWRNFADIDDSWKSIKSILDWTSFNQERIVDVAGPGGWNDPDMLVIGNFGLSWNQQVTQMALWAIMAAPLFMSNDLRHISPQAKALLQDKDVIAINQDPLGKQGYQLRQGDNFEVWERPLSGLAWAVAMINRQEIGGPRSYTIAVASLGKGVACNPACFITQLLPVKRKLGFYEWTSRLRSHINPTGTVLLQLENTMQMSKDLLL | + (+ = 0.5 to 1.5 relative activity over WT GLA (SEQ ID NO: 5)) | + (+ = 0.5 to 1.5 relative activity over WT GLA (SEQ ID NO: 5)) | + (+ = 0.5 to 1.5 relative activity over WT GLA (SEQ ID NO: 5))
6 | 176 (protein, Synthetic Polypeptide sequence of Variant No. 176 of mature Human GLA) LDNGLARTPTMGWLHWERFMCNLDCQEEPDSCISEKLFMEMAELMVTEGWKDAGYEYLCIDDCWMAPQRDSEGRLQADPQRFPHGIRQLANYVHSKGLKLGIYADVGNKTCAGFPGSFGYYDIDAQTFADWGVDLLKFDGCYCDSLENLADGYKHMSLALNRTGRSIVYSCEWPLYMWPFQKPNYTEIRQYCNHWRNFADIDDSWKSIKSILDWTSFNQERIVDVAGPGGWNDPDMLVIGNFGLSWNQQVTQMALWAIMAAPLFMSNDLRHISPQAKALLQDKDVIAINQDPLGKQGYQLRQGDNFEVWERPLSGLAWAVAMINRQEIGGPRSYTIAVASLGKGVACNPACFITQLLPVKRKLGFYEWTSRLRSHINPTGTVLLQLENTMQMSKDLLL | + (+ = 0.5 to 1.5 relative activity over WT GLA (SEQ ID NO: 5)) | + (+ = 0.5 to 1.5 relative activity over WT GLA (SEQ ID NO: 5)) | + (+ = 0.5 to 1.5 relative activity over WT GLA (SEQ ID NO: 5))
7 | 175 (protein, Synthetic Polypeptide sequence of Variant No. 175 of mature Human GLA) LDNGLARTPTMGWLHWERFMCNLDCQEEPDSCISEKLFMEMAELMVREGWKDAGYEYLCIDDCWMAPQRDSEGRLQADPQRFPHGIRQLANYVHSKGLKLGIYADVGNKTCAGFPGSFGYYDIDAQTFADWGVDLLKFDGCYCDSLENLADGYKHMSLALNRTGRSIVYSCEWPLYMWPFQKPNYTEIRQYCNHWRNFADIDDSWKSIKSILDWTSFNQERIVDVAGPGGWNDPDMLVIGNFGLSWNQQVTQMALWAIMAAPLFMSNDLRHISPQAKALLQDKDVIAINQDPLGKQGYQLRQGDNFEVWERPLSGLAWAVAMINRQEIGGPRSYTIAVASLGKGVACNPACFITQLLPVKRKLGFYEWTSRLRSHINPTGTVLLQLENTMQMSKDLLL | + (+ = 0.5 to 1.5 relative activity over WT GLA (SEQ ID NO: 5)) | ++ (++ = >1.5 to 2.5 relative activity over WT GLA (SEQ ID NO: 5)) | + (+ = 0.5 to 1.5 relative activity over WT GLA (SEQ ID NO: 5))
8 | 174 (protein, Synthetic Polypeptide sequence of Variant No. 174 of mature Human GLA) LDNGLARTPTMGWLHWERFMCNLDCQEEPDSCISEKLFMEMAELMVIEGWKDAGYEYLCIDDCWMAPQRDSEGRLQADPQRFPHGIRQLANYVHSKGLKLGIYADVGNKTCAGFPGSFGYYDIDAQTFADWGVDLLKFDGCYCDSLENLADGYKHMSLALNRTGRSIVYSCEWPLYMWPFQKPNYTEIRQYCNHWRNFADIDDSWKSIKSILDWTSFNQERIVDVAGPGGWNDPDMLVIGNFGLSWNQQVTQMALWAIMAAPLFMSNDLRHISPQAKALLQDKDVIAINQDPLGKQGYQLRQGDNFEVWERPLSGLAWAVAMINRQEIGGPRSYTIAVASLGKGVACNPACFITQLLPVKRKLGFYEWTSRLRSHINPTGTVLLQLENTMQMSKDLLL | + (+ = 0.5 to 1.5 relative activity over WT GLA (SEQ ID NO: 5)) | + (+ = 0.5 to 1.5 relative activity over WT GLA (SEQ ID NO: 5)) | + (+ = 0.5 to 1.5 relative activity over WT GLA (SEQ ID NO: 5))
